The values that follow come from article PMC6699855 (The Journal of Biological Chemistry, 2019).

“Also recorded” adds a separate entry of the source. Positions of bridges follow the written chain, without caps; N, C: chain ends. Non-standard residues stand in square brackets, D forms with d. Residues, ends and D or L forms follow the SMILES beside them.

Data set [1] can be described thus: pooled human plasma from healthy volunteers. As to conditions: 37 °C, up to 18 h.
Data set [2] concerns the target human CXCL8 (interleukin-8), recombinant, residues 6–77 (human). Nature of the data set: SEC; protein alone at 0.1 mg/ml; BioSep SEC-s2000; 50 mM sodium phosphate pH 6.65, 150 mM NaCl; masses from the maker's calibration curve. (In general: In gel filtration, larger molecules generally elute earlier.)
Data set [3] is described as follows: Proteolytic stability in human plasma. The format is in vitro ADME. Conditions: 100 μg in 100 μl human plasma, 37 °C, stopped with 20% TCA; for degradation in human plasma after 18 h: LC-MS/HPLC. On the procedure: The proteolytic stability of full-length Evasin-3 and its variants was tested in pooled human plasma from healthy volunteers (Fig. S12A).
100 μg of Evasin-3 variants were dissolved in 100 μl of normal plasma taken from a healthy volunteer and incubated at 37 °C. At a required time point reaction was stopped by addition of 15 μl of 20% TCA to a 15-μl aliquot of a sample and analyzed by LC-MS.

The target of data set [4] is human CXCL8 (interleukin-8), recombinant, residues 6–77 (human). Nature of the data set: NMR titration.
Data set [5] has as its system CXCL8-induced migration of polymorphonuclear neutrophils. Nature of the data set: PMN migration assay (chemotaxis chamber). In kind it is cell-based. As to conditions: 1 nM CXCL8 plus 10 nM variant; human neutrophils, 5-μm membrane, 90 min at 37 °C; n = 10 (Evasin-3), 9 (tEv3 17–56), 5 (tcEv3 16–56 dPG); CXCL8 alone 624 ± 458, control 98 ± 83. The protocol:
To assess the anti-CXCL8 activity of Evasin-3 variants, polymorphonuclear neutrophil (PMN) migration assays were performed. The addition of 1 nM CXCL8 induced significant migration of PMNs (624 ± 458 PMN/mm^2) compared with controls (98 ± 83 PMN/mm^2) in the absence of chemoattractant (Fig. 6). Migration was inhibited by addition of 10 nM of Evasin-3 (206 ± 203 PMN/mm^2).
Human neutrophils were isolated from the blood of healthy donors as described previously ([57]). Isolated neutrophils were resuspended at (10^6 cells/ml) in RPMI 1640 medium supplemented with 1% fetal calf serum. A 12-well chemotaxis chamber with a 5-μm polycarbonate membrane (Neuroprobe, Gaithersburg, MD) was used to assess the migration of neutrophils toward the chemoattractant CXCL8 (1 nM) in presence or absence of Evasin-3 variants (10 nM). The chemoattractant was added in the lower wells, and the neutrophils (1 × 10^5 cells) were seeded in the upper wells. After incubation of 90 min at 37 °C, the nonmigrated cells were carefully removed, and the membrane was stained with Diff-Quick stain (Eberhard Lehmann GmbH, Berlin, Germany). Migrated cells were visualized by light microscopy, counted manually in three fields of view, and expressed as cells/mm^2. The data were analyzed by GraphPad Prism 8.0 software using one-way analysis of variance statistical test.

Data set [6] concerns the target T1, chemically synthetized CXCL8-Biotin (C-terminally biotinylated human CXCL8) (human, UniProt P10145 28-99, biotin at the C-terminus).
T1 construct: also called immobilized human CXCL8; source: chemically synthetized; not shown: biotin, C-terminal, kept
T1 sequence (looked up): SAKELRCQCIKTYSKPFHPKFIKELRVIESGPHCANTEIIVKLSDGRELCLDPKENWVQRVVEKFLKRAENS
Briefly: SPR. Conditions: both partners purified.

The target in the next data set is T2, human CXCL8 (Homo sapiens, UniProt P10145).
T2 construct: made in house; host or cells: chemical synthesis (no expression host)
T2 sequence (P10145 21-99): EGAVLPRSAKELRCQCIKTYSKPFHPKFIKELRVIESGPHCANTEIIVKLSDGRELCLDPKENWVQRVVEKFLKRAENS
Nature of the data set: SPR biosensor affinity to immobilized CXCL8. In kind it is binding. As to conditions: SPR sensorgrams; association 250 s, dissociation 300 s, 30 μl/min; PBS pH 7.4, 0.05% Tween 20. (In SPR one partner is held on a chip, and binding of the other changes the refractive index at the surface.)

The next data set deals with CXCL8. As to conditions: binding to CXCL8; read-out: Kd value previously measured; cited from earlier work. From the text: In contrast to Evasin-1, where both the N and C termini play a crucial role in chemokine binding ([27], [38]), neither the N nor C terminus of Evasin-3 participate in CXCL8 binding. […] To study the effect of termini on binding, we synthesized two novel CXCL8-binding peptides: linear tEv3 17–56 and cyclic tcEv3 16–56 dPG, both retaining the ICK bundled core of the native protein. The ...

The target in data set [7] is T3, CXCL8–GAG (fondaparinux) complex (Homo sapiens, UniProt P10145).
T3 construct: human CXCL8 (UniProt: p10145, 6–77); made in house; host or cells: E. coli BL21 (DE3) Star
T3 sequence (P10145 28-99): T1 sequence (looked up)
Nature of the data set: GAG competition for [15N,13C]CXCL8 binding by NMR. As to conditions: 30 μM met-Evasin-3 added to 25 μM [15N,13C]CXCL8 with fondaparinux (up to 10-fold excess), 25 °C, pH 7.1; 15N-1H HSQC. From the text: To study competition between Evasin-3 and GAGs for CXCL8 binding, [^15N,^13C]CXCL8 was first titrated with increasing concentrations of dalteparin (Fragmin®, Pfizer) and low-molecular-mass heparin with the average molecular mass of 5 kDa. […] Fondaparinux (Arixtra®, GSK), which comprises the five central sulfated sugar units in heparin, has the well-defined composition and the lower molecular mass (1.7 kDa) comparing with Fragmin. For that reason, fondaparinux facilitates collection of NMR spectra of higher quality and was chosen for further NMR titration experiments. […] Observed changes were consistent with results of previous studies describing the interaction of CXCL8 with several heparin oligosaccharides ([29]).
For GAG-binding experiments low-molecular-mass heparin dalteparin (commercial name Fragmin®, Pfizer) and fondaparinux (commercial name Arixtra®, GSK) were purchased from a pharmacy as solutions for injections. 25 μM of [^15N,^13C]CXCL8 was titrated by increasing concentration of aliquots from a stock solution of 5 mg/ml fondaparinux or Fragmin to the final GAG concentration of 0.2 mM at 25 °C, pH 7.1. In the next step, 30 μM of met-Evasin-3 was added to the solution to monitor the displacement of bound fondaparinux and follow Evasin-3–CXCL8 complex formation by a series of 1D proton and ^15N-^1H HSQC spectra.

In data set [8] the target is human CXCL8 (interleukin-8), recombinant, residues 6–77 (human). Nature of the data set: NMR titration; [15N,13C]CXCL8 (200 μM) titrated with unlabelled met-Evasin-3; 15N-1H HSQC and filtered NOESY; 25 mM NaAc-d3 pH 4.5, 37 °C; equilibrium after up to 1 h.

Broadly, the stoichiometry N is a count of units in the complex or per binding partner. The term Kd denotes the equilibrium constant for the complex coming apart.

As to “LVSTIESRTSGDGADNFDVVSCNKNCTSGQNECPEGCFCGLLGQNKKGHCYKIIGNLSGEPPVVRR”, the cleaved bond result in data set [1] is reported as “Arg65-Arg66, 2 h; also recorded: V64-Arg65, 2 h”.

Consider “human CXCL8 (interleukin-8), recombinant, residues 6–77 (natural protein)”, for which the stoichiometry N in [2] turned out to be 2.

In the case of `CC[C@H](C)[C@H](NC(=O)[C@H](CCCCN)NC(=O)[C@H](Cc1ccc(O)cc1)NC(=O)[C@@H]1CSSC[C@@H]2NC(=O)[C@H](CCC(=O)O)NC(=O)[C@H](CC(N)=O)NC(=O)[C@H](CCC(N)=O)NC(=O)CNC(=O)[C@H](CO)NC(=O)[C@H]([C@@H](C)O)NC(=O)[C@@H]3CSSC[C@H](NC(=O)[C@H](Cc4ccccc4)NC(=O)[C@H](CSSC[C@H](NC(=O)[C@H](CO)NC(=O)[C@@H](NC(=O)[C@@H](NC(=O)[C@H](CC(=O)O)NC(=O)[C@@H](N)Cc4ccccc4)C(C)C)C(C)C)C(=O)N[C@@H](CC(N)=O)C(=O)N[C@@H](CCCCN)C(=O)N[C@@H](CC(N)=O)C(=O)N3)NC(=O)CNC(=O)[C@H](CCC(=O)O)NC(=O)[C@@H]3CCCN3C2=O)C(=O)NCC(=O)N[C@@H](CC(C)C)C(=O)N[C@@H](CC(C)C)C(=O)NCC(=O)N[C@@H](CCC(N)=O)C(=O)N[C@@H](CC(N)=O)C(=O)N[C@@H](CCCCN)C(=O)N[C@@H](CCCCN)C(=O)NCC(=O)N[C@@H](Cc2c[nH]cn2)C(=O)N1)C(=O)N[C@H](C(=O)NCC(=O)N[C@@H](CC(N)=O)C(=O)O)[C@@H](C)CC` [tEv3 17–56] (H-FDVVSCNKNCTSGQNECPEGCFCGLLGQNKKGHCYKIIGN-OH; disulfide 6-21, 10-23, 17-34), the “degradation in human plasma after 18 h” value in [3] was “equally high proteolytic stability”.

Consider “truncated Evasin-3 (tEv3 17–56) (from UniProt P0C8E8 37-76) (peptide)”, for which the stoichiometry N in [4] turned out to be 1.

“cyclo(CFCGLLGQNKKGHCYKIIGN[dP]GNFDVVSCNKNCTSGQNECPEG) (disulfide 1-29, 3-33, 14-40) [tcEv3 16–56 dPG]”: the “degradation in human plasma after 18 h” value in [3] is listed as “equally high proteolytic stability”. Moreover, the “PMN migration in presence of Evasin-3 variant” value in data set [5] is reported as 160 ± 65 PMN/mm^2.

B1: truncated cyclic Evasin-3 16–56 with a D-Pro-Gly turn (tcEv3 16–56 dPG) (peptide)
chain: cyclo(NFDVVSCNKNCTSGQNECPEGCFCGLLGQNKKGHCYKIIGN[dP]G)
modifications: ends not checked
As for B1, in [6], the dissociation constant Kd turned out to be 13 nM.

B2: Evasin-3: small salivary chemokine-binding protein from the brown dog tick Rhipicephalus sanguineus (UniProt p0c8e8, 1–66) (protein)
chain: LVSTIESRTSGDGADNFDVVSCNKNCTSGQNECPEGCFCGLLGQNKKGHCYKIIGNLSGEPPVVRR
With B2, the “association and dissociation kinetics compared with truncated variants” value with human CXCL8 is “slower association and dissociation kinetics”. For the same molecule, the “degradation in human plasma after 2 h” value in data set [3] (2 h, LC-MS) was “degraded nearly quantitatively”. The “degradation in human plasma after 18 h” value in data set [3] is “only ΔC2 could be detected”. Further, the “PMN migration in presence of Evasin-3 variant” value in data set [5] is recorded as 206 ± 203 PMN/mm^2. Moreover, on CXCL8, the Kd was 0.43 nM.

B3: met-Evasin-3 (Evasin-3 1–66 with an N-terminal methionine) (natural protein)
chain: MLVSTIESRTSGDGADNFDVVSCNKNCTSGQNECPEGCFCGLLGQNKKGHCYKIIGNLSGEPPVVRR
As to B3, the “effect on GAG binding of CXCL8” value in data set [7] is on record as “completely abolished GAG binding”. The stoichiometry N in data set [8] came to 1.

B4: truncated Evasin-3 (tEv3 17–56) (peptide)
chain: FDVVSCNKNCTSGQNECPEGCFCGLLGQNKKGHCYKIIGN
For B4, the affinity in data set [6], expressed as Kd, was 27 nM.
